From patent US20130336951A1 (CENTRE FOR ADDICTION AND MENTAL HEALTH, published 2013)

B1: GST-GluR2 NTc (L422-E545) (other, UniProt P19491 422-545, looked up)
chain: LESPYVMMKKNHEMLEGNERYEGYCVDLAAEIAKHCGFKYKLTIVGDGKYGARDADTKIWNGMVGELVYGKADIAIAPLTITLVREEVIDFSKPFMSLGISIMIKKPQKSKPGVFSFLDPLAYE
notes: range 422-545; also called GST-GluR2NT3; GluR2NT3; not shown: glutathione S-transferase (GST) encoded by vector pGEX-4T3
B2: p53, endogenous protein of rat hippocampus (other, UniProt P10361 1-391, looked up)
chain: MEDSQSDMSIELPLSQETFSCLWKLLPPDDILPTTATGSPNSMEDLFLPQDVAELLEGPEEALQVSAPAAQEPGTEAPAPVAPASATPWPLSSSVPSQKTYQGNYGFHLGFLQSGTAKSVMCTYSISLNKLFCQLAKTCPVQLWVTSTPPPGTRVRAMAIYKKSQHMTEVVRRCPHHERCSDGDGLAPPQHLIRVEGNPYAEYLDDRQTFRHSVVVPYEPPEVGSDYTTIHYKYMCNSSCMGGMNRRPILTIITLEDSSGNLLGRDSFEVRVCACPGRDRRTEEENFRKKEEHCPELPPGSAKRALPTSTSSSPQQKKKPLDGEYFTLKIRGRERFEMFRELNEALELKDARAAEESGDSRAHSSYPKTKKGQSTSRHKKPMIKKVGPDSD
B3: GST-GluR2 NTb (K272-I421) (other, UniProt P19491 272-421, looked up)
chain: KFIERWSTLEEKEYPGAHTATIKYTSALTYDAVQVMTEAFRNLRKQRIEISRRGNAGDCLANPAVPWGQGVEIERALKQVQVEGLSGNIKFDQNGKRINYTINIMELKTNGPRKIGYWSEVDKMVVTLTELPSGNDTSGLENKTVVVTTI
notes: range 272-421; also called GST-GluR2NT2; GluR2NT2; not shown: glutathione S-transferase (GST) encoded by vector pGEX-4T3
B4: GST-GluR2 NTa5 (Q222-S271) (other, UniProt P19491 222-271, looked up)
chain: QVITIGKHVKGYHYIIANLGFTDGDLLKIQFGGANVSGFQIVDYDDSLVS
notes: range 222-271; also called GluR2NT1-5; not shown: glutathione S-transferase (GST) encoded by vector pGEX-4T3
B5: GST-GluR2 NTa4 (K172-D221) (other, UniProt P19491 172-221, looked up)
chain: KWQVTAINVGNINNDKKDETYRSLFQDLELKKERRVILDCERDKVNDIVD
notes: range 172-221; also called GluR2NT1-4; not shown: glutathione S-transferase (GST) encoded by vector pGEX-4T3
B6: Glyceraldehyde 3-phosphate-dehydrogenase (GAPDH), endogenous protein of rat hippocampus (enzyme)
chain: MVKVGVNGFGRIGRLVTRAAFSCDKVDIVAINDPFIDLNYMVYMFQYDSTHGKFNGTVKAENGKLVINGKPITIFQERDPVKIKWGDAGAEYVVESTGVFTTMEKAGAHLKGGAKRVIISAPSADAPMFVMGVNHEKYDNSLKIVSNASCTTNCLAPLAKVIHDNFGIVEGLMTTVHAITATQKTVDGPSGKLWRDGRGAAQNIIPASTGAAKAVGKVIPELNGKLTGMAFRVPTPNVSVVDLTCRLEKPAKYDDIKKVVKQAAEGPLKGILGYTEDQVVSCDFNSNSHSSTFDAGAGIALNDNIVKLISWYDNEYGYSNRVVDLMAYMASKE
notes: Native protein in rat hippocampal extracts, primary rat hippocampal neurons and rat brain
B7: GST-GluR2 NTa2 (A72-T121) (other, UniProt P19491 72-121, looked up)
chain: AVTNAFCSQFSRGVYAIFGFYDKKSVNTITSFCGTLHVSFITPSFPTDGT
notes: range 72-121; also called GluR2NT1-2; not shown: glutathione S-transferase (GST) encoded by vector pGEX-4T3
B8: GST-GluR2 NTa1 (V22-F71) (other, UniProt P19491 22-71, looked up)
chain: VSSNSIQIGGLFPRGADQEYSAFRVGMVQFSTSEFRLTPHIDNLEVANSF
notes: range 22-71; also called GluR2NT1-1; not shown: glutathione S-transferase (GST) encoded by vector pGEX-4T3

Tests used:
[1] = target: T1, [35S]-GAPDH probe (in vitro translated, [35S]-methionine labelled GAPDH) (Homo sapiens, UniProt P04406 1-335, limits assumed, [35S]-methionine labelled); assay: repeated in vitro binding assay with in vitro translated probe
T1 sequence (P04406 whole entry): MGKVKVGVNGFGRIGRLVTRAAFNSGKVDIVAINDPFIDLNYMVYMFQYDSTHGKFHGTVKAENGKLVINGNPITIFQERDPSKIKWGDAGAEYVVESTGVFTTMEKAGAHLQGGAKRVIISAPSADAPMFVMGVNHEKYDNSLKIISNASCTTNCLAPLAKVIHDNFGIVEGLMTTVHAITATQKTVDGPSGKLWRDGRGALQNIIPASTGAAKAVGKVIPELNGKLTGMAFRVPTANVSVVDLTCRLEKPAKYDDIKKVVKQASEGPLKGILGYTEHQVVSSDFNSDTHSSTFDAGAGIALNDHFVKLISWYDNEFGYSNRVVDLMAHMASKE

GST-GluR2NT (V22-E545) = target: T2, GST-GluR2NT (V22-E545) (Rattus norvegicus (Rat), UniProt P19491 22-545); assay: GST pull-down, Western blot for p53 (FIG. 24A)
T2 construct: Bacterial GST fusion on glutathione-Sepharose; not shown: glutathione S-transferase (GST) encoded by vector pGEX-4T3

[2] = target: B6; assay: GST pull-down, Western blot for GAPDH
[3] = target: T1, [35S]-GAPDH probe (in vitro translated, …); assay: blot overlay with in vitro translated probe
GST alone = target: T3, GST alone (UniProt P08515 1-218 = GST); assay: GST pull-down, Western blot for GAPDH
T3 construct: Negative control; also called GST peptide
T3 sequence (P08515 whole entry): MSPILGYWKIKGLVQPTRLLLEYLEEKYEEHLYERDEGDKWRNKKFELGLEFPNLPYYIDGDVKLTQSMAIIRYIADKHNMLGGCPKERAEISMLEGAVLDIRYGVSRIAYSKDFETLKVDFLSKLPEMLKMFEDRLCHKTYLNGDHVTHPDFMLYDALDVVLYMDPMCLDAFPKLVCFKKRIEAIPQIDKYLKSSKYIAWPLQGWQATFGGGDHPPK

[4] = target: B3; assay: repeated GST pull-down from rat hippocampal tissue
[5] = target: B1; assay: repeated GST pull-down from rat hippocampal tissue
GST-GluR1NT (A19-E538) = target: T4, GST-GluR1NT (A19-E538) (UniProt P19490 19-538); assay: GST pull-down from rat hippocampal extracts, Coomassie-stained SDS-PAGE
T4 construct: range 19-538; Control fusion protein; not shown: glutathione S-transferase (GST) encoded by vector pGEX-4T3

[6] = target: B6; assay: repeated GST pull-down from rat hippocampal tissue

Binder: B1
- binding result [1]: no binding

Binder: B2
- binding result (GST-GluR2NT (V22-E545)): no binding

Binder: B3
- binding result [1]: no binding

Binder: B4
- binding result [2]: no binding
- binding result [3]: no binding

Binder: B5
- binding result [2]: no binding
- binding result [3]: no binding

Binder: B6
- binding result (GST alone): no binding
- binding result [4]: no binding
- binding result [5]: no binding
- binding result (GST-GluR1NT (A19-E538)): no binding

Binder: B7
- binding result [2]: no binding
- binding result [3]: no binding

Binder: B8
- binding result [3]: no binding
- binding result [6]: no binding
